In patent US20230143604A1, “QW DOSING OF GIP RECEPTOR AGONIST PEPTIDE COMPOUNDS AND USES THEREOF” (TAKEDA PHARMACEUTICAL COMPANY LIMITED, priority 2020, published 2023):
Starred links: 1 amine or outer side, 2 acyl side, 3 side chain; linkers in the order of their positions; H or OH if unused. Non-standard residues stand in square brackets, D forms with d. Residues, ends and D or L forms follow the SMILES beside them. Groups on a side chain read outwards from the residue. No end group written: not given here. *: point of attachment. 2OEGgEgE‑C18 diacid = O=C(O)CCCCCCCCCCCCCCCCC(=O)N[C@@H](CCC(=O)N[C@@H](CCC(=O)NCCOCCOCC(=O)NCCOCCOCC(=O)*)C(=O)O)C(=O)O; C17 diacid = O=C(O)CCCCCCCCCCCCCCCC(=O)*; γGlu = O=C(O)[C@H](CCC(=O)[*:2])N[*:1]; NMeY = CN[C@@H](Cc1ccc(O)cc1)C(=O)O; AEEA = NCCOCCOCC(=O)O; Aib = CC(C)(N)C(=O)O

T1: full-length human GIPR with an N-terminal FLAG tag (human, UniProt P48546 22-466)
T1 sequence (looked up): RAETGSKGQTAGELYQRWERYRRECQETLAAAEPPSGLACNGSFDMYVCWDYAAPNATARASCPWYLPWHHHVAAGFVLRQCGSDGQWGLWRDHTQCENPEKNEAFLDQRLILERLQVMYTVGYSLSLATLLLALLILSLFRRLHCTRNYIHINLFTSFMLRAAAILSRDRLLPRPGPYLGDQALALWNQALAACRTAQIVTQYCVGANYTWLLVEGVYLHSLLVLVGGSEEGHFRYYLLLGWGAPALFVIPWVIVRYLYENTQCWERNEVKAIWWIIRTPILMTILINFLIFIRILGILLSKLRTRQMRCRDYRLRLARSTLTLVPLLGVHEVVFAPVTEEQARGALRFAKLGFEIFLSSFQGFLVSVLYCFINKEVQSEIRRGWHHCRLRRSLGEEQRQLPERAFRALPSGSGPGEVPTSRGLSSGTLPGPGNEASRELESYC

B1: Compound No. 56 (peptide)
peptide: [NMeY][Aib]EGTFISDYSIALDR[Aib]AQ[Aib]DFVNWLLAK(2OEGgEgE‑C18 diacid)RG-OH
modifications: N-terminus assumed
SMILES: CC[C@H](C)[C@H](NC(=O)[C@H](CO)NC(=O)[C@H](Cc1ccc(O)cc1)NC(=O)[C@H](CC(=O)O)NC(=O)[C@H](CO)NC(=O)[C@@H](NC(=O)[C@H](Cc1ccccc1)NC(=O)[C@@H](NC(=O)CNC(=O)[C@H](CCC(=O)O)NC(=O)C(C)(C)NC(=O)[C@H](Cc1ccc(O)cc1)NC)[C@@H](C)O)[C@@H](C)CC)C(=O)N[C@@H](C)C(=O)N[C@@H](CC(C)C)C(=O)N[C@@H](CC(=O)O)C(=O)N[C@@H](CCCNC(=N)N)C(=O)NC(C)(C)C(=O)N[C@@H](C)C(=O)N[C@@H](CCC(N)=O)C(=O)NC(C)(C)C(=O)N[C@@H](CC(=O)O)C(=O)N[C@@H](Cc1ccccc1)C(=O)N[C@H](C(=O)N[C@@H](CC(N)=O)C(=O)N[C@@H](Cc1c[nH]c2ccccc12)C(=O)N[C@@H](CC(C)C)C(=O)N[C@@H](CC(C)C)C(=O)N[C@@H](C)C(=O)N[C@@H](CCCCNC(=O)COCCOCCNC(=O)COCCOCCNC(=O)CC[C@H](NC(=O)CC[C@H](NC(=O)CCCCCCCCCCCCCCCCC(=O)O)C(=O)O)C(=O)O)C(=O)N[C@@H](CCCNC(=N)N)C(=O)NCC(=O)O)C(C)C
B2: Compound No. 55 (peptide)
peptide: [NMeY][Aib]EGTFISDYSIALDR[Aib]AQ[Aib]NFVNWLLAK(2OEGgEgE‑C18 diacid)RG-OH
modifications: N-terminus assumed
SMILES: CC[C@H](C)[C@H](NC(=O)[C@H](CO)NC(=O)[C@H](Cc1ccc(O)cc1)NC(=O)[C@H](CC(=O)O)NC(=O)[C@H](CO)NC(=O)[C@@H](NC(=O)[C@H](Cc1ccccc1)NC(=O)[C@@H](NC(=O)CNC(=O)[C@H](CCC(=O)O)NC(=O)C(C)(C)NC(=O)[C@H](Cc1ccc(O)cc1)NC)[C@@H](C)O)[C@@H](C)CC)C(=O)N[C@@H](C)C(=O)N[C@@H](CC(C)C)C(=O)N[C@@H](CC(=O)O)C(=O)N[C@@H](CCCNC(=N)N)C(=O)NC(C)(C)C(=O)N[C@@H](C)C(=O)N[C@@H](CCC(N)=O)C(=O)NC(C)(C)C(=O)N[C@@H](CC(N)=O)C(=O)N[C@@H](Cc1ccccc1)C(=O)N[C@H](C(=O)N[C@@H](CC(N)=O)C(=O)N[C@@H](Cc1c[nH]c2ccccc12)C(=O)N[C@@H](CC(C)C)C(=O)N[C@@H](CC(C)C)C(=O)N[C@@H](C)C(=O)N[C@@H](CCCCNC(=O)COCCOCCNC(=O)COCCOCCNC(=O)CC[C@H](NC(=O)CC[C@H](NC(=O)CCCCCCCCCCCCCCCCC(=O)O)C(=O)O)C(=O)O)C(=O)N[C@@H](CCCNC(=N)N)C(=O)NCC(=O)O)C(C)C
B3: Compound No. 57 (peptide)
peptide: [NMeY][Aib]EGTFISDYSIALDR[Aib]AQ[Aib]DFVNWLLAK(2OEGgEgE‑C18 diacid)RGGGGS-NH2
modifications: N-terminus assumed
SMILES: CC[C@H](C)[C@H](NC(=O)[C@H](CO)NC(=O)[C@H](Cc1ccc(O)cc1)NC(=O)[C@H](CC(=O)O)NC(=O)[C@H](CO)NC(=O)[C@@H](NC(=O)[C@H](Cc1ccccc1)NC(=O)[C@@H](NC(=O)CNC(=O)[C@H](CCC(=O)O)NC(=O)C(C)(C)NC(=O)[C@H](Cc1ccc(O)cc1)NC)[C@@H](C)O)[C@@H](C)CC)C(=O)N[C@@H](C)C(=O)N[C@@H](CC(C)C)C(=O)N[C@@H](CC(=O)O)C(=O)N[C@@H](CCCNC(=N)N)C(=O)NC(C)(C)C(=O)N[C@@H](C)C(=O)N[C@@H](CCC(N)=O)C(=O)NC(C)(C)C(=O)N[C@@H](CC(=O)O)C(=O)N[C@@H](Cc1ccccc1)C(=O)N[C@H](C(=O)N[C@@H](CC(N)=O)C(=O)N[C@@H](Cc1c[nH]c2ccccc12)C(=O)N[C@@H](CC(C)C)C(=O)N[C@@H](CC(C)C)C(=O)N[C@@H](C)C(=O)N[C@@H](CCCCNC(=O)COCCOCCNC(=O)COCCOCCNC(=O)CC[C@H](NC(=O)CC[C@H](NC(=O)CCCCCCCCCCCCCCCCC(=O)O)C(=O)O)C(=O)O)C(=O)N[C@@H](CCCNC(=N)N)C(=O)NCC(=O)NCC(=O)NCC(=O)NCC(=O)N[C@@H](CO)C(N)=O)C(C)C

Assays:
[1] = physchem
Method in brief: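 Solubility at pH 7.4 determined by stepwise addition of 200 mM phosphate buffer in 100 μL increments to 3 mg peptide, mixing briefly each time, until no insoluble material remained, then measured by liquid chromatography.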

[2] = target: T1, full-length human GIPR with an …; assay: cell-based or functional assay
[3] = target: full-length human GLP-1R with an N-terminal FLAG tag (human, UniProt P43220 24-463); assay: cell-based or functional assay

Row | Molecule | solubility ([1]; pH 7.4) [mg/mL] | solubility ([1]; pH 7.4, aqueous buffer) [mg/mL] | Human GIPR cAMP EC50, HEK293T [2] [nM] | Human GLP1R cAMP EC50, HEK293T [3] [nM]
1 | CC[C@H](C)[C@H](NC(=O)[C@H](CCCCN)NC(=O)[C@H](CC(=O)O)NC(=O)[C@H](CC(C)C)NC(=O)[C@H](C)NC(=O)[C@@H](NC(=O)[C@H](CO)NC(=O)[C@H](Cc1ccc(O)cc1)NC(=O)[C@H](CC(=O)O)NC(=O)[C@H](CO)NC(=O)[C@@H](NC(=O)[C@H](Cc1ccccc1)NC(=O)[C@@H](NC(=O)CNC(=O)[C@H](CCC(=O)O)NC(=O)C(C)(C)NC(=O)[C@@H](N)Cc1ccc(O)cc1)[C@@H](C)O)[C@@H](C)CC)[C@@H](C)CC)C(=O)N[C@@H](C)C(=O)N[C@@H](CCC(N)=O)C(=O)N[C@@H](CCC(N)=O)C(=O)N[C@@H](CCCCNC(=O)COCCOCCNC(=O)COCCOCCNC(=O)CC[C@H](NC(=O)CC[C@H](NC(=O)CCCCCCCCCCCCCCCC(=O)O)C(=O)O)C(=O)O)C(=O)N[C@@H](Cc1ccccc1)C(=O)N[C@H](C(=O)N[C@@H](CCC(=O)O)C(=O)N[C@@H](Cc1c[nH]c2ccccc12)C(=O)N[C@@H](CC(C)C)C(=O)N[C@@H](CC(C)C)C(=O)N[C@@H](C)C(=O)N[C@@H](CCC(N)=O)C(=O)N[C@@H](CCCNC(=N)N)C(=O)NCC(=O)O)C(C)C [Compound 142] (H-Y[Aib]EGTFISDYSIALDKIAQQK([AEEA-AEEA-γGlu-γGlu-C17 diacid])FVEWLLAQRG-OH) | ≥ 15 | ≥ 30 |  | 
2 | CC[C@H](C)[C@H](NC(=O)[C@H](CO)NC(=O)[C@H](Cc1ccc(O)cc1)NC(=O)[C@H](CC(=O)O)NC(=O)[C@H](CO)NC(=O)[C@@H](NC(=O)[C@H](Cc1ccccc1)NC(=O)[C@@H](NC(=O)CNC(=O)[C@H](CCC(=O)O)NC(=O)C(C)(C)NC(=O)[C@@H](N)Cc1ccc(O)cc1)[C@@H](C)O)[C@@H](C)CC)C(=O)N[C@@H](C)C(=O)N[C@@H](CC(C)C)C(=O)N[C@@H](CC(=O)O)C(=O)N[C@@H](CCCCN)C(=O)NC(C)(C)C(=O)N[C@@H](C)C(=O)N[C@@H](CCC(N)=O)C(=O)N[C@@H](C)C(=O)N[C@@H](CCCCNC(=O)COCCOCCNC(=O)COCCOCCNC(=O)CC[C@H](NC(=O)CC[C@H](NC(=O)CCCCCCCCCCCCCCCC(=O)O)C(=O)O)C(=O)O)C(=O)N[C@@H](Cc1ccccc1)C(=O)N[C@H](C(=O)N[C@@H](CCC(=O)O)C(=O)N[C@@H](Cc1c[nH]c2ccccc12)C(=O)N[C@@H](CC(C)C)C(=O)N[C@@H](CC(C)C)C(=O)N[C@@H](C)C(=O)N[C@@H](CCC(N)=O)C(=O)N[C@@H](CCCNC(=N)N)C(=O)NCC(=O)O)C(C)C [Compound 131] (H-Y[Aib]EGTFISDYSIALDK[Aib]AQAK([AEEA-AEEA-γGlu-γGlu-C17 diacid])FVEWLLAQRG-OH) | ≥ 15 | ≥ 30 |  | 
3 | [NMeY][Aib]EGTFISDYSIALDRIHQQNFVNWLLAQK-NH2 (not fully specified (residue 30)) [Compound No. 5] |  |  | 0.0007 | 123
4 | [NMeY][Aib]EGTFISDYSIALDR[Aib]AQ[Aib]NFVNWLLAK(2OEGgEgE‑C18 diacid)SPSSGAPPPS-NH2 [Compound No. 59] |  |  | 0.0005 | > 1000
5 | YXEGTFISDYSIXXDRXAQXDFVNWLLAQRPSSGAPPPS (N-methyl Tyr 1; Aib at 2,13,17,20; Lys(G5-C18 diacid) at 14; C-terminal OH) [Compound No. 54] |  |  | 0.0006 | 120
6 | YXEGTFISDYSIAXDRXAQXNFVNWLLAQSPSSGAPPPS (N-methyl Tyr 1; Aib at 2,17,20; Lys(G5-C20 diacid) at 14; C-terminal OH) [Compound No. 112] |  |  | 0.0003 | 
7 | YXEGTFISDYSIAXDRXAQXNFVNWLLAQSPSSGAPPPS (N-methyl Tyr 1; Aib at 2,17,20; Lys(G5-C20 diacid) at 14; C-terminal OH) [Compound No. 40] |  |  | 0.0007 | 
8 | B1 |  |  | 0.0006 | > 1000
9 | [NMeY][Aib]EGTFISDYSIALDR[Aib]AQ[Aib]DFVNWLLAK(2OEGgEgE‑C18 diacid)RPSSGAPPPS-NH2 [Compound No. 58] |  |  | 0.0004 | > 1000
10 | YXEGTFISDYSIXXDRXAQXDFVNWLLAQSG (N-methyl Tyr 1; Aib at 2,13,17,20; Lys(G5-C18 diacid) at 14; C-terminal OH) [Compound No. 53] |  |  | 0.0005 | 47.9
11 | YXEGTFISDYSIAXDSXAQXDFVNWLLAQSG (N-methyl Tyr 1; Aib at 2,17,20; Lys(G5-C18 diacid) at 14; C-terminal OH) [Compound No. 60] |  |  | 0.0003 | 100
12 | [NMeY][Aib]EGTFISDYSIALDRK(2OEGgE‑C18 diacid)HQQNFVNWLLAQRPSSGAPPPS-NH2 [Compound No. 4] |  |  | 0.001 | 38.9
13 | B2 |  |  | 0.0009 | 741
14 | B3 |  |  | 0.0006 | > 1000
